{"source": "the DeepSol protein solubility set", "data": [{"assay": "soluble on expression in E. coli; label from the status in PepcDB or PDB records", "values": [{"sequence": "MPTPKAFALLGPTAGGKTALALKIAETLPVEIISLDSALVYRDMDIGTAKPSASERAFVPHHLIDIIPPTESYSAARFVEDCTRLVGEISSRGRFALIVGGTMMYFRALTQGLNDLPEADACLRADLDEQKQMYGLDFLYRTLQKVDPETACRLKPNDSQRIGRALEVYYLTGKPMSTHLGSLTSHTLPFDLHTAALIPENRARLHENIALRFHLMLEQGFIGEVENLRRRYPGLTAYSPAIRCVGYRQAWKYLDGKTDFPAFVEKGIAATRQLAKRQLTWLRKTPLDCVADPFSDCTSCTRLIEAAKRFFGALEHHHHHH", "soluble on expression in E. coli": "soluble"}, {"sequence": "MPTQFIRNRSAFPQGTNNDIDDFQYQNDFSSSSHQLPSTASGYSEHSSHQNFQNHSPPPGKATTDPLAGALLGLSDVITKSLISHPCGVLRRQCQVHQFAGSLHLTPVTLIPVICNSVAKQGIQTFWKGAIGSSVLWGLTNVTEIVLGDLMGLPRTFVVNGSAEKYWKHIVLKGVTFVTMTPFYISSFIETVRSESGIGGEDNKILDVLVKGVDRMRYFLTSGRDPSRRFSIIHLAIPTAGFQVGHYMLQTALYHQFFRMAKRYVNRKSPAEKTTYHDFLPQMFAQTSSMVLTDLILYPFETIVHRMYIQGTRTLIDNMDTGLSAVSMTVKYSGYFDCVRQVLETEGFWALYAGVGAVLLEYSLHQGLQQLVRACFDRGSELLRKATQGHPVVQSSQITPPISAKSSFNGPISNSFPSAGAALLSPMSTPRKHSTPPKDPTEFPTFGETVSQIGSPYQMPDRPNVFGSPPNRTRATHDSTQSLPPLQLNIRPSSGDPFSG", "soluble on expression in E. coli": "not soluble"}, {"sequence": "MPTSSTPPIVYETDLEPIYYQDCYCHKELVFCKNWKFGGEIFKYNSSGTNSSIRRVQFDCCVYKDQEIDEEMSEKVKTFKGTLDPRQVVQNNCFQHLSPLYSKFCEHYGHMIGFFWNSLKDTVMAYDIADGLFQETKDCGCCLFHKDVYLTNHIFFEKSHRDEYGQTIICMDINWHTKEHGKMSIFFNSQGFFGEYRWNRVAQCFKLMKQLDVKTTEYEVADRTDDEKNWSSFSYDAIHFLEQEYRKTKYISSTDCQKISEKIHLDEELIEKWFRARRATSKREANSNEDIFTSQYQQTKLTMKDGTEGYFLRKNHEYFKKIVVTVGFSDGSVKPCVWIEKISEYQIIDQETWRLKFENSRVMAIDAEAREQVHRQRKLNSNEKRKEEEAENEQEKLFKEMAELEIQNYRILPNSSDKRLEEHELKTQSSTLPKPCAHAQAQAHAQAQAHAQAHETNDNWPKLMTELFRALLQGQSLTQQHMQRLVHLRTQPDFNRRSYAGHELTAMEMEALKQLLNLLNGKEMPTGKKEEVEGSGLTISEAHGTVGSPMLIEKKEELEGSLEHQPTMANEEIDQNLKEETTTKPEYRKKLRMSKRKQNELLQKLWLKEKNTENTHAEKTNQEKKLTENAVQEQLEQMMKMIQEERRAADSKNLKLEQMVLEMKDKLDAQETRIKELEEVIKSDKNAKKGEQLTDPTEPQYTEAPNAEVGHKSNISSSIGNDVDLLEDDSGED", "soluble on expression in E. coli": "not soluble"}, {"sequence": "MPTTQLHHHYVLCGWHVRSALTLPELPPWSATATPVDADVVIEEGEVPDRLDLHDPVESWLSVGRDGSVLLQVPQVVRIHVHAGRAMRVQRLNRHDESWRLFLLGSALGYLCLQRSLFPLHAACLRIGTQTVAFAGHSGAGKSTLAAALLKRGHGLLSDDLTVIRLDSAGAIMVLPAFPRLKLWRDTLESLQLPVTDAPPVRPGMEKFDLRPSAGFDAAPVRLDAVVVLGDASEPHLQRLSPQHALPLLHGYLARPQAAVRMGLHAATFAHAAAIARQVPVWRLRRPRRFDALDITVDLIEAHVGALEHHHHHH", "soluble on expression in E. coli": "not soluble"}, {"sequence": "MPVDRILEAELAVEQKSDQGVEGPGGTGGSGSSPNDPVTNICQAADKQLFTLVEWAKRIPHFSSLPLDDQVILLRAGWNELLIASFSHRSIDVRDGILLATGLHVHRNSAHSAGVGAIFDRVLTELVSKMRDMRMDKTELGCLRAIILFNPDAKGLSNPSEVEVLREKVYASLETYCKQKYPEQQGRFAKLLLRLPALRSIGLKCLEHLFFFKLIGDTPIDTFL", "soluble on expression in E. coli": "soluble"}, {"sequence": "MPVSLLKAHEAEMWEVHFHPSNPDHLFTCSEDGSLWHWDASTNAPEKSSLFHQGGRSSTFLSHSLSNQAGVHQSLVSSWLSTDPAKDRIEITSLLPSRTLSVNSLDVLGPCLVCGTDAEAIYVTRQLFS", "soluble on expression in E. coli": "not soluble"}, {"sequence": "MPVVNIPIKILGQNQSHSRSNSSSSVDNDRNQPPQQPPQPQPQQQSQQQYQQAPNVNTNMHHSNGFSPNFPSRSPIPDFPSFSSGFPNDSEWSSNFPSFPNFPSGFSNGSSNFPDFPRFGRDGGLSPNPPMQGYRRSPTPTSTQSPTSTLRRNSQQNQAPPQYSQQQPQQAQQRQTTPPSTKASSRPPSRTREPKEPEVPERPAVIPLPYEKKEKPLEKKGSRDSGKGDENLEENIAKITIGKNNCELCPEQETDGDPSPLTSPITEGKPKRGKKLQRNQSVVDFNAKTIVTLDKIELQVEQLRKKAAELEMEKEQILRSLGEISVHNCMFKLEECDREEIEAITDRLTKRTKTVQVVVETPRNEEQKKALEDATLMIDEVGEMMHSNIEKAKLCLQTYMNACSYEETAGATCQNFLKIIIQCAADDQKRIKRRLENLMSQIENAERTKADLMDDQSE", "soluble on expression in E. coli": "not soluble"}, {"sequence": "MPWLLPREIAPLHQKALDRYLGSLTERLSDPNVDRNALVREELARLLYGRPYEELLEANPLAAMGLDPEGITFEAEYYAATDLEKFRRVKPLLWFWKVLDLTPLGQSVHSGVAIRRALAPFIFKRVGKNPKFFQNVEFSVGYNLELGDDVVVHRYVFLDDIGGIKIGDRTSLSDYVNVYSHTHHVLASPDVTLKETIIGSGVRITYHATVLAGVRIGDDAMVGTGAVVTKDIPPHAIALGIPARPVRYKVRHDCPYCRKGEPHPSDLVPKLPDRKGNPDYPDFLPPGFGTREAGS", "soluble on expression in E. coli": "soluble"}, {"sequence": "MPWQQQPIRYSADLEKPSPREQADIEKIMAKLLKNNERAYDKYKHGLRDAHAKSHAILRGELIVNEGLPPELAQGLFAEPRTYPVIARLSSTSGVRRSDKTRGVRGLGLKVLGVQGEKILPDDSSTNQDFVMVTHEDFLFADAHAYAGLGMITASLLARLSDQALWLGSGLLDLVSKAGIKLPDNLMVFVAPNRPILGLEFFSSAPFRHGDHVAKYRFAPASENVKALSGQLLPRNPAPEQHRDMIAEFFADQTAEFDFSAQLCTDPVAMPIEDAGKNWDKSISPYVSVAKIVFGPQNPYSALRRAYGDDVLAFNSWRGLAEHRPLGSINRLKKTVYESSADYRHRVNRIDRHEPVDISELPDLEHHHHHH", "soluble on expression in E. coli": "not soluble"}, {"sequence": "MPYLLYHHFDPTFDHQNLKPGLAVGKGKVDHYNLGYVQNVVKGQVLAEFIPIDDTDDPVIDRNHIFEEPLLPVGPNCKVDPDSPLRVVADANGYVFYNDGLITVKRMLNVRRDVDFHTGNIFFVSDIAVHGDVRAGFEVQGNNILVKGIIEGATVRARGSLAVEGGARGSGGSGLLDAGDTLRVPFAESMELRAHGNILIEKFCLHSLVYAATNLVVKNRLQGGTVHCNGLVYVETHLGNPKGTPTATRINMGYDPFTMRKLDRLEQHIRELQDSLTHIAGIAGNLGSDSAPGKRLDNARKKLNRLIRQREALWAALTEDEARAALCRVVVPGTVYPGVEISIGKAFFEVEHEMNNVSFSLADGSIVVTSPAIIKKKALEHHHHHH", "soluble on expression in E. coli": "not soluble"}, {"sequence": "MQANGVWSLQPLADMSAAEFRDWQVLLENRTGVVLNEQRRTFLQASLTARMRELGIGDYHSYYRQVTDGPRGAVEWATLLDRLTVQETRFFRHPPSFELLERYLGERLRREGMPRPWALWSVGCSSGEEPYSLAMCAAQVLRGQEREDFFGVTGTDISLHALQRARQANYPARKLEQLEAGLVERYCERQADGSFSVKTILTERVCCARLNVLDLAKAPWSGMDVIFCQNLLIYFRRWRRREILNRLAERLAPGGLLVIGVGEVVDWSHPELEPVADERVLAFTR", "soluble on expression in E. coli": "not soluble"}, {"sequence": "MQCELCGKEVKNIIKTRVEGVEMNVCEACAKFGMSPKGYSRKPRAVFKNETKQKQAKRPRKDMFDNLKTLVEDYGSLVKEAREKKNMTLEELSRAVGIKESLIHKIERNEIEPEEKYVKILEKALGISFYEEGDLNYETSNEDSEFTLGDFIKVKKRK", "soluble on expression in E. coli": "not soluble"}, {"sequence": "MQCFNTIFRLFTDMDEDNEIGLPQKGINQIIKEVVPEMRIANESRDMINACCVEFVKHIAREAQRIASQDQRKTIYHEHVQKALQNLGFTPDYLEAADSVLDACKVEAEKKLRRKNSRLEKCGIPEEKLYEMQQELIQKARQQEIEQQLAHQQAQAAAVAAANAQMFGGPSEGSLAPTDDDYDN", "soluble on expression in E. coli": "soluble"}, {"sequence": "MQDAACARRFVEAFGKRAYRRPLTPEEADAYAALFGQGSFREGVEATITHMLVSPNFLYRSELEHHHHHH", "soluble on expression in E. coli": "not soluble"}, {"sequence": "MQDWWEADNRLADWLSMILIQRTIEKNAKQALANLGPHLDLESLIGMDMATLEEYIYPAGFYKQKSIYIKALIKWFHGHGASLDKFQTYSTEDLRKELLGIKGVGEETADAMLLYIFERNVFIADLEHHHHHH", "soluble on expression in E. coli": "not soluble"}, {"sequence": "MQEGVKVVVDSRELRSEVVKRLKLLGVKLEVKTLDVGDYIISEDVAIERKSANDLIQSIIDGGLFDQVKRLKEAYSRPIMIVEGSLYGIRNVHPNAIRGAIAAVTVDFGVPIIFSSTPEETAQYIFLIAKREQEEREKPVRIR", "soluble on expression in E. coli": "soluble"}, {"sequence": "MQEHFHFTTDPAKLQKQYAAIFCFVSAQLSLIQMYLHRRNRHLVKQEDEVVMAVHLLGKLLGFSSERAWHRFVTGNLFTNGSFLERSRYNRRCRALGFAVKWIRHELAKRGQHHAYAVVDSLPLPLCHPARMQRVKRFRGIADMGYCASKKQWYYGFKLHLQVTHQGLAMGYVVTEASCHDVKAAETVMTQIPHPYNFGDKGYISRALREKLYEEHQAAFWTPSRHNQKHGPSKAWEEWIRKKRKVIETVFSILVDQYRITDIRANSIAGFEVALDGILVAYSLVTLGLVER", "soluble on expression in E. coli": "not soluble"}, {"sequence": "MQFDNIDSALMALKNGETIIVVDDENRENEGDLVAVTEWMNDNTINFMAKEARGLICAPVSKDIAQRLDLVQMVDDNSDIFGTQFTVSIDHVDTTTGISAYERTLTAKKLIDPSSEAKDFNRPGHLFPLVAQDKGVLARNGHTEAAVDLAKLTGAKPAGVICEIMNDDGTMAKGQDLQKFKEKHQLKMITIDDLIEYRKKLEPEIEFKAKVKMPTDFGTFDMYGFKATYTDEEIVVLTKGAIRQHENVRLHSACLTGDIFHSQRCDCGAQLESSMKYINEHGGMIIYLPQEGRGIGLLNKLRAYELIEQGYDTVTANLALGFDEDLRDYHIAAQILKYFNIEHINLLSNNPSKFEGLKQYGIDIAERIEVIVPETVHNHDYMETKKIKMGHLIMAGDPLEHHHHHH", "soluble on expression in E. coli": "not soluble"}, {"sequence": "MQFEHLVQVNDRTLVDLPVLDRLQLWEGLVCRAREPQYFVVGLERFEILVDDGDRLHRRLYLPGLVVEDEVVLKAPDSAHYSIKPSAEVAGGSLDMTIEEPEPGSLFVRFAYCTRYLQPLGDELPYDAFVKQAYIAMDVETIATIRDRFGASAASGS", "soluble on expression in E. coli": "soluble"}, {"sequence": "MQGFQPPAEKDAIEFAKKHRKEFEKVGEQFFKDNFGLKVKATNVVGKDDGIEVYVHCDDHGIVFNASLPLYKDAIHQKGSMRSNDNGDDMSMMVGTVLSGFEYRAQKEKYDNLYKFFKENEKKYQYTGFTKEAINKTQNVGYKNEYFYITYSSRSLKEYRKYYEPLIQKNDKEFKEGMERARKEVNYAADTDAVATLFSTKKNFTNDNTEDDVIELSDKLYNLKNKPDKSTITIQIGKPTINTKKAFYDDNRPIEYGVHSKGELEHHHHHH", "soluble on expression in E. coli": "soluble"}, {"sequence": "MQHEEGNRQRPQGELLLRTVAMPRDTNPNQDIFGGWIMSQMDLGGGILAAEIARGRIVTVAVQEMNFIRPVKVGNVVCCYGHCVRVGNTSLQLKVEVWVKTLMNDCVTEDRHLVTEAVFTYVAIDAEGNPRPIPKEGNPILAGLLPTPLEHHHHHH", "soluble on expression in E. coli": "soluble"}]}]}
